Tests used:
Assay in all cases: cell-based or functional assay
[1] = biological target: HIV-1 Env pseudovirus Ce2060_G9 (HIV-1)
[2] = biological target: HIV-1 Env pseudovirus ZM247v1(Rev-) (HIV-1)
[3] = biological target: HIV-1 Env pseudovirus ZM135M.PL10a (HIV-1)
[4] = biological target: HIV-1 Env pseudovirus MS208.A1 (HIV-1)
[5] = biological target: HIV-1 Env pseudovirus Ce1176_A3 (HIV-1)
[6] = biological target: HIV-1 Env pseudovirus ZM197M.PB7 (HIV-1)
[7] = biological target: HIV-1 Env pseudovirus Q842.d12 (HIV-1)
[8] = biological target: HIV-1 Env pseudovirus Ce0682_E4 (HIV-1)
[9] = biological target: HIV-1 Env pseudovirus 6535.3 (HIV-1)
[10] = biological target: HIV-1 Env of pseudovirus CNE53 (HIV-1)
[11] = biological target: HIV-1 Env of pseudovirus QH0692.42 (HIV-1)
[12] = biological target: HIV-1 Env of pseudovirus Q842.d12 (HIV-1)
[13] = biological target: HIV-1 Env of pseudovirus Ce1176_A3 (HIV-1)
[14] = biological target: HIV-1 Env of pseudovirus WEAU_d15_410_787 (HIV-1)
[15] = biological target: HIV-1 Env of pseudovirus 0260.v5.c36 (HIV-1)
[16] = biological target: HIV-1 Env of pseudovirus ZM53M.PB12 (HIV-1)
[17] = biological target: HIV-1 Env pseudovirus 231965.c01 (HIV-1)
[18] = biological target: HIV-1 Env pseudovirus X1254_c3 (HIV-1)
[19] = biological target: HIV-1 Env pseudovirus T255-34 (HIV-1)
[20] = biological target: HIV-1 Env pseudovirus T278-50 (HIV-1)
[21] = biological target: HIV-1 Env pseudovirus 3103.v3.c10 (HIV-1)
[22] = biological target: HIV-1 Env pseudovirus 3817.v2.c59 (HIV-1)
[23] = biological target: HIV-1 Env pseudovirus 3301.v1.c24 (HIV-1)

N49P7.2 (antibody) was tested, and the IC50 [1] was 0.821 µg/mL, the IC80 [1] was 2.81 µg/mL and the MPI [1] was 100. It also gave an IC50 [2] of 0.177 µg/mL, an IC80 [2] of 2.5 µg/mL and an MPI [2] of 96. For the same substance, the IC50 [3] was 0.596 µg/mL, the IC80 [3] was 2.8 µg/mL and the MPI [3] was 99. It also gave an IC50 [4] of 0.186 µg/mL, an IC80 [4] of 0.966 µg/mL and an MPI [4] of 100. The IC50 [5] was 0.332 µg/mL, the IC80 [5] was 1.08 µg/mL and the MPI [5] was 100. For the same substance, the IC50 [6] was 0.223 µg/mL, the IC80 [6] was 1.37 µg/mL and the MPI [6] was 100. For the same substance, the IC50 [7] was 0.045 µg/mL, the IC80 [7] was 0.2 µg/mL and the MPI [7] was 100. The IC50 [8] was 0.067 µg/mL, the IC80 [8] was 0.233 µg/mL and the MPI [8] was 100. The IC50 [9] was 0.152 µg/mL, the IC80 [9] was 0.784 µg/mL and the MPI [9] was 100.

N49P7 (antibody) showed an IC50 [10] of 0.035 µg/mL, an IC80 [10] of 0.124 µg/mL and an MPI [10] of 100. It also gave an IC50 [11] of 0.663 µg/mL, an IC80 [11] of 2.41 µg/mL and an MPI [11] of 100. For the same substance, the IC50 [12] was 0.021 µg/mL, the IC80 [12] was 0.06 µg/mL and the MPI [12] was 100. It also gave an IC50 [13] of 0.204 µg/mL, an IC80 [13] of 0.589 µg/mL and an MPI [13] of 100. It also gave an IC50 [14] of 0.045 µg/mL, an IC80 [14] of 0.117 µg/mL and an MPI [14] of 100. It also gave an IC50 [15] of 0.354 µg/mL, an IC80 [15] of 0.884 µg/mL and an MPI [15] of 100. The IC50 [16] was 0.251 µg/mL, the IC80 [16] was 0.8 µg/mL and the MPI [16] was 100.

Work on VRC01 (antibody) yielded an IC50 (Titer in TZM.bl cells) [1] of 0.29 µg/mL, an IC80 (Titer in TZM.bl cells) [1] of 1.48 µg/mL and an IC50 (Titer in TZM.bl cells) [2] of 0.35 µg/mL. The IC80 (Titer in TZM.bl cells) [2] was 1.29 µg/mL, the IC50 (Titer in TZM.bl cells) [3] was 0.35 µg/mL and the IC80 (Titer in TZM.bl cells) [3] was 2.7 µg/mL. For the same substance, the IC50 (Titer in TZM.bl cells) [4] was 0.1 µg/mL, the IC80 (Titer in TZM.bl cells) [4] was 0.46 µg/mL and the IC50 (Titer in TZM.bl cells) [5] was 2.25 µg/mL. It also gave an IC80 (Titer in TZM.bl cells) [5] of 8.1 µg/mL, an IC50 (Titer in TZM.bl cells) [6] of 0.36 µg/mL and an IC80 (Titer in TZM.bl cells) [6] of 1.6 µg/mL. The IC50 (Titer in TZM.bl cells) [17] was 0.34 µg/mL, the IC80 (Titer in TZM.bl cells) [17] was 1.2 µg/mL and the IC50 (Titer in TZM.bl cells) [18] was 0.07 µg/mL. It also gave an IC80 (Titer in TZM.bl cells) [18] of 0.19 µg/mL, an IC50 (Titer in TZM.bl cells) [7] of 0.03 µg/mL and an IC80 (Titer in TZM.bl cells) [7] of 0.096 µg/mL. It also gave an IC50 (Titer in TZM.bl cells) [8] of 0.08 µg/mL, an IC80 (Titer in TZM.bl cells) [8] of 0.48 µg/mL and an IC50 (Titer in TZM.bl cells) [19] of 0.7 µg/mL. The IC80 (Titer in TZM.bl cells) [19] was 2.7 µg/mL, the IC50 (Titer in TZM.bl cells) [20] was greater than 50 µg/mL and the IC80 (Titer in TZM.bl cells) [20] was greater than 50 µg/mL. For the same substance, the IC50 (Titer in TZM.bl cells) [21] was 0.93 µg/mL, the IC80 (Titer in TZM.bl cells) [21] was 2.49 µg/mL and the IC50 (Titer in TZM.bl cells) [22] was greater than 50 µg/mL. It also gave an IC80 (Titer in TZM.bl cells) [22] greater than 50 µg/mL, an IC50 (Titer in TZM.bl cells) [23] of 0.14 µg/mL and an IC80 (Titer in TZM.bl cells) [23] of 0.32 µg/mL. The IC50 (Titer in TZM.bl cells) [9] was 0.54 µg/mL and the IC80 (Titer in TZM.bl cells) [9] was 2.7 µg/mL.

With N49P19 (antibody) the neutralization IC50 [15] was 1.25 µg/mL, the neutralization IC80 [15] was 8.52 µg/mL and the neutralization MPI [15] was 99.

N49P9.1 (antibody) showed a neutralization IC50 [15] of 0.519 µg/mL, a neutralization IC80 [15] of 0.151 µg/mL and a neutralization MPI [15] of 100.

Substance N49P9 (antibody) has a neutralization IC50 [15] of 0.466 µg/mL, a neutralization IC80 [15] of 1.85 µg/mL and a neutralization MPI [15] of 100.

N49P18.1 (antibody) was tested, and the IC50 [1] was greater than 50 µg/mL, the IC80 [1] was greater than 50 µg/mL and the MPI [1] was 37. For the same substance, the IC50 [2] was 10.9 µg/mL, the IC80 [2] was greater than 50 µg/mL and the MPI [2] was 79. It also gave an IC50 [3] greater than 50 µg/mL, an IC80 [3] greater than 50 µg/mL and an MPI [3] of 46. The IC50 [4] was 8.31 µg/mL, the IC80 [4] was 33.3 µg/mL and the MPI [4] was 88. For the same substance, the IC50 [5] was 32.5 µg/mL, the IC80 [5] was greater than 50 µg/mL and the MPI [5] was 61. It also gave an IC50 [6] of 12.5 µg/mL, an IC80 [6] of 49.8 µg/mL and an MPI [6] of 84. It also gave an IC50 [7] of 3.04 µg/mL, an IC80 [7] of 8.13 µg/mL and an MPI [7] of 100. For the same substance, the IC50 [8] was 3.95 µg/mL, the IC80 [8] was 21.1 µg/mL and the MPI [8] was 96. For the same substance, the IC50 [9] was 2.06 µg/mL, the IC80 [9] was 11.4 µg/mL and the MPI [9] was 100.

PGDM1400 (antibody) showed a neutralization IC50 [10] of 0.077 µg/mL, a neutralization IC80 [10] of 0.246 µg/mL and a neutralization IC50 [11] greater than 50 µg/mL. The neutralization IC80 [11] was greater than 50 µg/mL, the neutralization IC50 [12] was less than 0.001 µg/mL and the neutralization IC80 [12] was 0.002 µg/mL. For the same substance, the neutralization IC50 [13] was 0.587 µg/mL, the neutralization IC80 [13] was 11.6 µg/mL and the neutralization IC50 [14] was 0.103 µg/mL. The neutralization IC80 [14] was 1.37 µg/mL, the neutralization IC50 [15] was 0.033 µg/mL and the neutralization IC80 [15] was 0.175 µg/mL. It also gave a neutralization IC50 [16] of 0.002 µg/mL and a neutralization IC80 [16] of 0.011 µg/mL.

From patent US20240117018A1
